# Test system: Escherichia coli TOP10
# Experiment: shrunken log2 fold change of peptide-encoding DNA abundance (4.5 h post-induction vs induction); higher = less antimicrobial activity (less host growth inhibition)
# Conditions: time post-induction: 4.5 h; library: site-saturation at positions 5, 18, 19, 20
# 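Note: peptides expressed intracellularly from a pBAD plasmid library in pooled LB shake-flask culture, induced with 0.3% L-arabinose, DNA abundance read by NGS, three biological replicates, DESeq2 with apeglm shrinkage.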
row,Sequence,shrunken log2 fold change
1,RRIRPRPPRLPRPRPRPRSPPRP,0.592
2,RRIRMRPPRLPRPRPRPLVDPRP,0.526
3,RRIRVRPPRLPRPRPRPGSLPRP,-0.363
4,RRIRQRPPRLPRPRPRPSRFPRP,3.97
5,RRIRMRPPRLPRPRPRPYGWPRP,0.0956
6,RRIRYRPPRLPRPRPRPLYSPRP,-1.15
7,RRIRERPPRLPRPRPRPCWDPRP,-0.00421
8,RRIRVRPPRLPRPRPRPYRVPRP,-0.0295
9,RRIRVRPPRLPRPRPRPECFPRP,0.195
10,RRIRLRPPRLPRPRPRPPAQPRP,0.888
11,RRIRVRPPRLPRPRPRPHKFPRP,0.0807
12,RRIRYRPPRLPRPRPRPWWVPRP,-0.0131
13,RRIRPRPPRLPRPRPRPKMLPRP,-0.222
14,RRIRLRPPRLPRPRPRPENHPRP,-0.126
15,RRIRPRPPRLPRPRPRPSRLPRP,-0.0839
16,RRIRVRPPRLPRPRPRPRNQPRP,0.0453
17,RRIRMRPPRLPRPRPRPVQSPRP,0.206
18,RRIRMRPPRLPRPRPRPEIHPRP,0.176
19,RRIRIRPPRLPRPRPRPVSTPRP,-0.342
20,RRIRIRPPRLPRPRPRPSTFPRP,-0.329
21,RRIRWRPPRLPRPRPRPRYMPRP,-0.139
22,RRIRHRPPRLPRPRPRPYNFPRP,-0.078

row,Sequence,shrunken log2 fold change
1,RRIRQRPPRLPRPRPRPENGPRP,-0.0161
2,RRIRFRPPRLPRPRPRPHPCPRP,-0.231
3,RRIRQRPPRLPRPRPRPMMFPRP,-0.3
4,RRIRMRPPRLPRPRPRPWRLPRP,-0.0743
5,RRIRTRPPRLPRPRPRPHQTPRP,-0.0425
6,RRIRWRPPRLPRPRPRPGPDPRP,0.533
7,RRIRARPPRLPRPRPRPGNIPRP,-0.239
8,RRIRPRPPRLPRPRPRPGPQPRP,0.521
9,RRIRFRPPRLPRPRPRPKNAPRP,-0.0814
10,RRIRQRPPRLPRPRPRPRILPRP,-0.275
11,RRIRPRPPRLPRPRPRPCTEPRP,0.0737
12,RRIRFRPPRLPRPRPRPSAHPRP,-0.352
13,RRIRMRPPRLPRPRPRPEGMPRP,2.24
14,RRIRSRPPRLPRPRPRPECDPRP,0.262
15,RRIRVRPPRLPRPRPRPCVFPRP,-0.00495
16,RRIRDRPPRLPRPRPRPYHLPRP,-0.0628
17,RRIRIRPPRLPRPRPRPLNAPRP,-0.107
18,RRIRYRPPRLPRPRPRPCRPPRP,-0.0124
19,RRIRIRPPRLPRPRPRPDSGPRP,0.00524
20,RRIRCRPPRLPRPRPRPCSIPRP,-0.143
21,RRIRNRPPRLPRPRPRPEFQPRP,-0.00325
22,RRIRFRPPRLPRPRPRPAKQPRP,-0.0234

row,Sequence,shrunken log2 fold change
1,RRIRTRPPRLPRPRPRPNAQPRP,0.5
2,RRIRFRPPRLPRPRPRPLQFPRP,0.0763
3,RRIRYRPPRLPRPRPRPEHYPRP,-0.126
4,RRIRARPPRLPRPRPRPEPEPRP,0.967
5,RRIRDRPPRLPRPRPRPPFDPRP,0.422
6,RRIRPRPPRLPRPRPRPPFDPRP,0.228
7,RRIRPRPPRLPRPRPRPFPQPRP,0.54
8,RRIRIRPPRLPRPRPRPQTQPRP,-0.244
9,RRIRTRPPRLPRPRPRPQTDPRP,-0.466
10,RRIRDRPPRLPRPRPRPWLWPRP,0.0548
11,RRIRMRPPRLPRPRPRPDIHPRP,0.335
12,RRIRARPPRLPRPRPRPMYLPRP,-0.506
13,RRIRVRPPRLPRPRPRPRGPPRP,0.946
14,RRIRMRPPRLPRPRPRPEHGPRP,0.406
15,RRIRQRPPRLPRPRPRPWLRPRP,-0.112
16,RRIRMRPPRLPRPRPRPQAMPRP,0.318
17,RRIRCRPPRLPRPRPRPALIPRP,-0.0928
18,RRIRFRPPRLPRPRPRPQYWPRP,-0.462
19,RRIRGRPPRLPRPRPRPMAQPRP,1.07
20,RRIRWRPPRLPRPRPRPHKEPRP,-0.0233
21,RRIRKRPPRLPRPRPRPIGWPRP,0.7
22,RRIRFRPPRLPRPRPRPHFQPRP,-0.261

row,Sequence,shrunken log2 fold change
1,RRIRFRPPRLPRPRPRPPMPPRP,0.568
2,RRIRPRPPRLPRPRPRPLHAPRP,0.282
3,RRIRGRPPRLPRPRPRPDKIPRP,0.813
4,RRIRQRPPRLPRPRPRPCTNPRP,-0.359
5,RRIRRRPPRLPRPRPRPAVGPRP,0.344
6,RRIRERPPRLPRPRPRPTFTPRP,-0.134
7,RRIRPRPPRLPRPRPRPQKKPRP,-0.113
8,RRIRYRPPRLPRPRPRPKVFPRP,0.149
9,RRIRFRPPRLPRPRPRPEFRPRP,-0.0593
10,RRIRERPPRLPRPRPRPWNTPRP,-0.00122
11,RRIRTRPPRLPRPRPRPAGAPRP,0.164
12,RRIRHRPPRLPRPRPRPSVCPRP,-0.294
13,RRIRHRPPRLPRPRPRPYGHPRP,-0.551
14,RRIRMRPPRLPRPRPRPGWNPRP,0.226
15,RRIRGRPPRLPRPRPRPTHYPRP,0.525
16,RRIRVRPPRLPRPRPRPVNSPRP,-0.184
17,RRIRHRPPRLPRPRPRPGQIPRP,-0.00195
18,RRIRNRPPRLPRPRPRPLPYPRP,-0.542
19,RRIRCRPPRLPRPRPRPRTRPRP,0.47
20,RRIRRRPPRLPRPRPRPSLHPRP,0.114
21,RRIRNRPPRLPRPRPRPYYHPRP,-0.781
22,RRIRWRPPRLPRPRPRPHENPRP,0.0568

row,Sequence,shrunken log2 fold change
1,RRIRYRPPRLPRPRPRPPYPPRP,-0.257
2,RRIRIRPPRLPRPRPRPNYHPRP,-0.733
3,RRIRIRPPRLPRPRPRPSMLPRP,-0.422
4,RRIRMRPPRLPRPRPRPMVGPRP,-0.06
5,RRIRHRPPRLPRPRPRPAYHPRP,-0.274
6,RRIRHRPPRLPRPRPRPIAGPRP,0.0113
7,RRIRDRPPRLPRPRPRPMYCPRP,-0.00227
8,RRIRHRPPRLPRPRPRPMAMPRP,0.00505
9,RRIRDRPPRLPRPRPRPKELPRP,0.0843
10,RRIRSRPPRLPRPRPRPAVYPRP,-0.585
11,RRIRNRPPRLPRPRPRPNCLPRP,-0.116
12,RRIRWRPPRLPRPRPRPYPYPRP,0.0754
13,RRIRYRPPRLPRPRPRPKTVPRP,-1.07
14,RRIRMRPPRLPRPRPRPCDDPRP,0.553
15,RRIRCRPPRLPRPRPRPPNWPRP,1.17
16,RRIRWRPPRLPRPRPRPYWNPRP,-0.645
17,RRIRLRPPRLPRPRPRPYGHPRP,2.49
18,RRIRMRPPRLPRPRPRPTAKPRP,0.255
19,RRIRLRPPRLPRPRPRPRFRPRP,0.117
20,RRIRCRPPRLPRPRPRPFWLPRP,-0.227
21,RRIRNRPPRLPRPRPRPSDIPRP,0.0588

# Source: the supplement of paper PMC9112550, “Optimization of the antimicrobial peptide Bac7 by deep mutational scanning” (BMC Biology, 2022)
